# Data as given in paper PMC4814300 (Cell reports, 2016).
# T1: Ven-SH3 (Gads, aa.256-322) (mouse, UniProt O89100 256-322)
# T1 sequence (looked up): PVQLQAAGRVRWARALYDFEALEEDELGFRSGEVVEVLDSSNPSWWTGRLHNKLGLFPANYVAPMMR
# Target: T1, Ven-SH3 (Gads, aa.256-322)
# Test: FRET or BRET
row,Binder,Kd [µM]
1,"PAPSIDRSTKPPL (peptide, UniProt Q13094 231-243, looked up) [Cer-SLP-76, aa.231-243]",0.8
2,"PAPSIKRSTKPPL (peptide, UniProt Q13094 231-243, looked up) [Cer-SLP-76 (D236K), aa.231-243]",7
3,"PAPSIDRSTRPPL (peptide, UniProt Q13094 231-243, looked up) [Cer-SLP-76 (K240R), aa.231-243]",24

# Now from value to binder:
row,Kd [µM],Binder
1,1,"EPPPVDRNLKPDR (peptide, UniProt Q13480 515-527, looked up) [Cer-Gab1, aa.515-527]"
2,4,"NVPQIDRTKKPAV (peptide, UniProt P40818 403-415, looked up) [Cer-USP8, aa.403-415]"
